Patent US10058586B2, “Use of human small leucine zipper protein in adipocyte differentiation procedure” (Korea University Research and Business Foundation, priority 2013, dated 2018)

How the values were obtained:
[1] = molecular target: T1, PPARγ2 (Homo sapiens, UniProt P37231); assay: FABP4 promoter luciferase analysis in preadipocytes from epididymal adipose tissues of sLZIP TG mice; type: cell-based, mouse; parameters: expressed in transfected cells; host or cells: primary preadipocytes from epididymal adipose tissue of human-sLZIP transgenic mice; details: adipocytes of sLZIP TG mice vs wild type mice, with or without 10 nM RZD
T1 sequence (P37231 1-505): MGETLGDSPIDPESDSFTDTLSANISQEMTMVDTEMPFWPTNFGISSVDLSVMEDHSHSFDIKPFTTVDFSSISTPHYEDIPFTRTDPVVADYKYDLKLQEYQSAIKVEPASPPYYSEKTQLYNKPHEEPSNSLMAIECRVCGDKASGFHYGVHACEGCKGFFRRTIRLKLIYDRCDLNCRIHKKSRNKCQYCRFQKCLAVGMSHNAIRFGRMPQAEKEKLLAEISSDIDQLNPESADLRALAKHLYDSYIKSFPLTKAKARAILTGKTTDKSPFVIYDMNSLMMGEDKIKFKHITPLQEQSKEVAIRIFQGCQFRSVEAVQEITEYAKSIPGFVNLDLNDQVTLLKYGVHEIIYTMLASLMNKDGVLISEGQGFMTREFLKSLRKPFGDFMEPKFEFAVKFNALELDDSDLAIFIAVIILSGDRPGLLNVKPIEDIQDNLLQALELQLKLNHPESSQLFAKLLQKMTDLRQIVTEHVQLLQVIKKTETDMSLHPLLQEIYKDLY
Description: In order to generate human sLZIP transgenic (TG) mice, sLZIP genes were cloned into a pCMV-flag expression vector. The sLZIP TG mice were generated by Macrogen, Inc (Seoul, Korea). Transgenic founders were mated with wild type C57BL/6 mice to produce F1 heterozygotes. F1-F4 generations were genetically screened for transgenes at an age of 2 weeks old. The following two primers were used to amplify genomic DNA in order to identify wild type and TG mice: [NT] and 5'-[NT]3.' Adipocyte differentiation is a well-regulated procedure. PPARγ2 is a major regulator of adipogenesis, is highly expressed during adipocyte differentiation, and regulates expression of genes involved in adipogenesis. An effect of sLZIP on adipogenesis in vivo was examined. For this purpose, in order to produce human sLZIP transgenic mice, sLZIP genes were cloned in a pCMV-flag expression vector. The sLZIP TG mice were produced in Macrogen, Inc (Seoul, Korea) (FIG. 8A). Preadipocytes were isolated from epididymal adipose tissues of sLZIP TG mice. […] A promoter activity was measured according to luciferase analysis (FIG. 8B). […] Total RNA was extracted from the cells, and an mRNA expression level of mouse LZIPs was measured using RT-PCR analysis. […] Total RNA was isolated from the cells, and an mRNA expression level of mouse LZIPs was measured using RT-PCR (FIG. 9C) and real-time PCR (FIG. 9D).

[2] = Solubility of sLZIP; type: physicochemical; details: saline or buffer solution
[3] = system: PGC1α; assay: GST pull-down of GST-PPARγ2 with anti-PGC1α immunoblot in 293T cells; type: binding; details: 10 nM RZD for 24 hours
Description: Therefore, in order to understand a regulation mechanism of sLZIP in the PPARγ2 transcriptional activity by binding to the FABP4 promoter region, an effect of sLZIP on the interaction between PPARγ2 and HDAC3 was examined. For this purpose, 293T cells were transfected with GST-HDAC3, Myc-PPARγ2 and Flag-sLZIP, and were treated or not treated with 10 nM of RZD for 24 hours. Cell lysates were subjected to GST pull-down analysis using a glutathione 4B bead, and a protein complex was analyzed in SDS-PAGE, and then immunoblotted with anti-GST, anti-Myc and anti-Flag antibodies (FIG. 6A). GST-HDAC3, GST-PPARγ2, Myc-PPARγ2, Flag-sLZIP and Ha-UB were expressed in the 293T cells, and the cells were treated with 10 nM of RZD for 24 hours. Cell lysates were subjected to GST pull-down analysis (FIG. 6B). GST-PPARγ2 and Flag-sLZIP were expressed in the 293T cells and treated with 10 nM of RZD for 24 hours. Cell lysates were subjected to GST pull-down analysis, and a protein complex was analyzed in SDS-PAGE, and then immunoblotted with anti-PGC1α, anti-GST and anti-Flag antibodies (FIG. 6C).

B1: sLZIP: human small leucine-zipper protein, isoform of LZIP, 354 amino acids, no transmembrane domain; GenBank FJ263669, SEQ ID NO: 1 (protein, listed as Homo sapiens)
chain: MELELDAGDQDLLAFLLEESGDLGTAPDEAVRAPLDWALPLSEVPSDWEVDDLLCSLLSPPASLNILSSSNPCLVHHDHTYSLPRETVSMDLESESCRKEGTQMTPQHMEELAEQEIARLVLTDEEKSLLEKEGLILPETLPLTKTEEQILKRVRRKIRNKRSAQESRRKKKVYVGGLESRVLKYTAQNMELQNKVQLLEEQNLSLLDQLRKLQAMVIEISNKTSSSSMYSSDTRGSLPAEHGVLSRQLRALPSEDPYQLELPALQSEVPKDSTHQWLDGSDCVLQAPGNTSCLLHYMPQAPSAEPPLEWPFPDLFSEPLCRGPILPLQANLTRKGGWLPTGSPSVILQDRYSG
For B1, the “transcriptional activity of PPARγ2 (luciferase)” value [1] was “decreased in the adipocytes of the sLZIP TG mice more than in wild type mice”, the solubility [2] was “very soluble in a saline or a buffer solution” and the “recruitment of coactivator PGC-1α to PPARγ2” value [3] was “inhibited the complementing of a coactivator PGC-la for PPARγ2”.
